Measurements: patent US9556424B2, “1-deoxy-D-xylulose 5-phosphate synthase alleles responsible for enhanced terpene biosynthesis” (GENOPLANTE-VALOR, priority 2010, dated 2017)

How the values were obtained:
[1] = tested on: grape berries; assay: Terpenol content in grape berry skins as a function of DXS alleles (MO and GW progeny); assay type: in vivo, Vitis vinifera; settings: by DXS genotype in MO and GW progeny, pool of 5 major terpenols
Description: Isolation of Free and Bound Monoterpenols by Solid Phase Extraction (SPE)
For each sampling point, three replicates of terpenol analysis were performed. For each replicate, at least 25 berries were used. Seeds were removed and skins separated from mesocarps. After weighing, skins were ground under liquid nitrogen and then suspended in 40 mL of water after addition of 40 mg of sodium sulphite. The supernatant obtained after a 15-min centrifugation (11400 g at 4° C.) was passed through a glass fibre pre-filter and a glass filter. Twenty microliters of a 1 g/L 4-nonanol solution was added as external standard to allow the quantification of the main terpenols. Extraction of terpenols was adapted from Mateo et al. (1997), ethanol being used instead of methanol. The filtrate was passed through a 1 g phase C18 silica-bonded non-polar SPE column (BOND ELUT JR.), previously washed with 5 mL of methanol and 15 mL of ultra-pure water, at a rate of approximately one drop/s. The sample was then divided in two equal subsamples, one for the analysis of free and glycosidically bound monoterpenols and one for the analysis of free terpenols. Total fractions of free and bound monoterpenols were eluted with 4 mL of absolute ethanol. […]

[2] = tested on: tobacco leaves; assay: Agrobacterium-mediated transient co-expression of GES and DXS alleles in tobacco leaves, geraniol by GC-MS; assay type: in vivo, Nicotiana benthamiana; settings: 96 h after infiltration; for increase in geraniol accumulation in tobacco leaves: co-expression with GES, in average
Text: In order to characterize DXS alleles activity, the inventors used Agrobacterium-mediated transient transformation of tobacco (Nicotiana benthamiana), which allows a fast and efficient gene expression in tobacco leaves (Batoko et al., 2000). This approach was already used successfully to characterize genes involved in grapevine secondary metabolism (Schmidlin et al., 2008; Hugueney et al., 2009). MoDXS1, MoDXS2 and GwDXS2 alleles were expressed in tobacco leaves, together with a cDNA encoding the enzyme geraniol synthase (GES) from basilicum (Ocimum basalicum) (Iijima et al., 2004). […] Thus, GC-M5 analyses of tobacco leaves co-expressing GES and DXS alleles allowed an accurate comparison of DXS alleles activity in planta.
Grapevine DXS cDNAs were amplified by PCR using the upstream primer 5′-[…] TACGCTCTCATTTCC-3′ (SEQ ID No11) and the downstream primer 5′-[…]-3′ (SEQ ID No12), and cloned into the pDONR207 Gateway compatible vector (Invitrogen, Carlsbad, Calif.) using Gateway BP clonase (Invitrogen) according to the manufacturer's instructions. DXS cDNAs were sequenced to verify that no mutation had been introduced. For Agrobacterium-mediated transient expression, DXS cDNAs were subsequently transferred into the GATEWAY binary vector pMDC32 (Curtis and Grossniklaus., 2003). Geraniol synthase cDNA from basilicum (Ocimum basilicum) (Iijima et al., 2004) was cloned into the GATEWAY binary vector pMDC83 (Curtis and Grossniklaus., 2003) and expressed as a GFP fusion protein. All constructs were introduced into Agrobacterium tumefaciens strain C58 (pMP90) by electroporation. Nicotiana benthamiana leaves were infiltrated with A. tumefaciens cultures (OD600 0.5) according to Voinnet et al. (2003). Leaf sectors were […] for terpene content 96 h after Agrobacterium infiltration.
For each sampling point, three replicates of terpenol analysis were performed. After weighing, tobacco leaf sectors (about 1 g) were ground under liquid nitrogen and then suspended in 2 mL of ultra-pure water. […]

| Molecule | terpenol content in grape berries [1] | geraniol biosynthesis ([2]; co-expression with GES in tobacco leaves, versus GES alone) | increase in geraniol accumulation in tobacco leaves [2] |
| --- | --- | --- | --- |
| MoDXS1: typical (wild type) DXS allele shared by Vitis vinifera cv Muscat Ottonel and Gewurztraminer (protein, Vitis Vinifera, typical (wild type) DXS allele shared by Vitis vinifera cv Muscat Ottonel and Gewurztraminer) MALCTLSFPAHFSQAAASNPQRLTPQCSHLFLGVDLQCQSQQRSKARKRPNGVCASLSDREEYHSQRPPTPLLDTINYPIHMKNLSVKELKQLADELRSDVVFNVSKTGGHLGSSLGVVELTVALHYVFNAPQDRILWDVGHQSYPHKILTGRRDQMHTMRQTDGLAGFTKRSESEYDCFGTGHSSTTISAGLGMAVGRDLKGKNNNVIAVIGDGAMTAGQAYEAMNNAGYLDSDMIVILNDNKQVSLPTATLDGPIPPVGALSSALSRLQSNRPLRELREVAKGVTKQIGGPMHELAAKVDEYARGMISGSGSTLFEELGLYYIGPVDGHNIDDLVAILKEVKSTKTTGPVLIHVVTEKGRGYPYAEKAADKYHGVTKFDPATGKQFKSSAPTQSYTTYFAEALIAEAEVDKDIVAIHAAMGGGTGLNLFHRRFPTRCFDVGIAEQHAVTFAAGLACEGIKPFCAIYSSFMQRAYDQVVHDVDLQKLPVKFAMDRAGLVGADGPTHCGAFDVAFMACLPNMVVMAPADEAELFHMVATAAAIDDRPSCFRYPRGNGVGVELPPGNKGIPIEVGRGRILIEGERVALLGYGTAVQSCLVASSLLEQHGLRITVADARFCKPLDHALIRSLAKSHEVLITVEEGSIGGFGSHVAQFLALNGLLDGTTKWSPMVLPDRYIDHGAPADQLAMAGLTPSHIAATVFNILGQTREALEIML | extremely low levels of terpenols | substantial increases |  |
| GwDXS2: DXS allele of Vitis vinifera cv Gewurztraminer with R306→C mutation (protein, Vitis Vinifera, DXS allele of Vitis vinifera cv Gewurztraminer with R306→C mutation) MALCTLSFPAHFSQAAASNPQRLTPQCSHLFLGVDLQCQSQQRSKARKRPNGVCASLSDREEYHSQRPPTPLLDTINYPIHMKNLSVKELKQLADELRSDVVFNVSKTGGHLGSSLGVVELTVALHYVFNAPQDRILWDVGHQSYPHKILTGRRDQMHTMRQTDGLAGFTKRSESEYDCFGTGHSSTTISAGLGMAVGRDLKGKNNNVIAVIGDGAMTAGQAYEAMNNAGYLDSDMIVILNDNKQVSLPTATLDGPIPPVGALSSALSRLQSNRPLRELREVAKGVTKQIGGPMHELAAKVDEYACGMISGSGSTLFEELGLYYIGPVDGHNIDDLVAILKEVKSTKTTGPVLIHVVTEKGRGYPYAEKAADKYHGVTKFDPATGKQFKSSAPTQSYTTYFAEALIAEAEVDKDIVAIHAAMGGGTGLNLFHRRFPTRCFDVGIAEQHAVTFAAGLACEGIKPFCAIYSSFMQRAYDQVVHDVDLQKLPVKFAMDRAGLVGADGPTHCGAFDVAFMACLPNMVVMAPADEAELFHMVATAAAIDDRPSCFRYPRGNGVGVELPPGNKGIPIEVGRGRILIEGERVALLGYGTAVQSCLVASSLLEQHGLRITVADARFCKPLDHALIRSLAKSHEVLITVEEGSIGGFGSHVAQFLALNGLLDGTTKWSPMVLPDRYIDHGAPADQLAMAGLTPSHIAATVFNILGQTREALEIML |  |  | three time increase |
| MoDXS2: DXS allele of Vitis vinifera cv Muscat Ottonel with K284→N mutation (protein, Vitis Vinifera, DXS allele of Vitis vinifera cv Muscat Ottonel with K284→N mutation) MALCTLSFPAHFSQAAASNPQRLTPQCSHLFLGVDLQCQSQQRSKARKRPNGVCASLSDREEYHSQRPPTPLLDTINYPIHMKNLSVKELKQLADELRSDVVFNVSKTGGHLGSSLGVVELTVALHYVFNAPQDRILWDVGHQSYPHKILTGRRDQMHTMRQTDGLAGFTKRSESEYDCFGTGHSSTTISAGLGMAVGRDLKGKNNNVIAVIGDGAMTAGQAYEAMNNAGYLDSDMIVILNDNKQVSLPTATLDGPIPPVGALSSALSRLQSNRPLRELREVANGVTKQIGGPMHELAAKVDEYARGMISGSGSTLFEELGLYYIGPVDGHNIDDLVAILKEVKSTKTTGPVLIHVVTEKGRGYPYAEKAADKYHGVTKFDPATGKQFKSSAPTQSYTTYFAEALIAEAEVDKDIVAIHAAMGGGTGLNLFHRRFPTRCFDVGIAEQHAVTFAAGLACEGIKPFCAIYSSFMQRAYDQVVHDVDLQKLPVKFAMDRAGLVGADGPTHCGAFDVAFMACLPNMVVMAPADEAELFHMVATAAAIDDRPSCFRYPRGNGVGIELPPGNKGIPIEVGRGRILIEGERVALLGYGTAVQSCLVASSLLEQHGLRITVADARFCKPLDHALIRSLAKSHEVLITVEEGSIGGFGSHVAQFLALNGLLDGTTKWSPMVLPDRYIDHGAPADQLAMAGLTPSHIAATVFNILGQTREALEIML |  |  | three time increase |
